Tests used:
LacI-CFP-Nup153 = target: T1, LacI-CFP-Nup153 (human, UniProt P49790 1-1475); test: LacI/LacO array recruitment in cells
T1 sequence: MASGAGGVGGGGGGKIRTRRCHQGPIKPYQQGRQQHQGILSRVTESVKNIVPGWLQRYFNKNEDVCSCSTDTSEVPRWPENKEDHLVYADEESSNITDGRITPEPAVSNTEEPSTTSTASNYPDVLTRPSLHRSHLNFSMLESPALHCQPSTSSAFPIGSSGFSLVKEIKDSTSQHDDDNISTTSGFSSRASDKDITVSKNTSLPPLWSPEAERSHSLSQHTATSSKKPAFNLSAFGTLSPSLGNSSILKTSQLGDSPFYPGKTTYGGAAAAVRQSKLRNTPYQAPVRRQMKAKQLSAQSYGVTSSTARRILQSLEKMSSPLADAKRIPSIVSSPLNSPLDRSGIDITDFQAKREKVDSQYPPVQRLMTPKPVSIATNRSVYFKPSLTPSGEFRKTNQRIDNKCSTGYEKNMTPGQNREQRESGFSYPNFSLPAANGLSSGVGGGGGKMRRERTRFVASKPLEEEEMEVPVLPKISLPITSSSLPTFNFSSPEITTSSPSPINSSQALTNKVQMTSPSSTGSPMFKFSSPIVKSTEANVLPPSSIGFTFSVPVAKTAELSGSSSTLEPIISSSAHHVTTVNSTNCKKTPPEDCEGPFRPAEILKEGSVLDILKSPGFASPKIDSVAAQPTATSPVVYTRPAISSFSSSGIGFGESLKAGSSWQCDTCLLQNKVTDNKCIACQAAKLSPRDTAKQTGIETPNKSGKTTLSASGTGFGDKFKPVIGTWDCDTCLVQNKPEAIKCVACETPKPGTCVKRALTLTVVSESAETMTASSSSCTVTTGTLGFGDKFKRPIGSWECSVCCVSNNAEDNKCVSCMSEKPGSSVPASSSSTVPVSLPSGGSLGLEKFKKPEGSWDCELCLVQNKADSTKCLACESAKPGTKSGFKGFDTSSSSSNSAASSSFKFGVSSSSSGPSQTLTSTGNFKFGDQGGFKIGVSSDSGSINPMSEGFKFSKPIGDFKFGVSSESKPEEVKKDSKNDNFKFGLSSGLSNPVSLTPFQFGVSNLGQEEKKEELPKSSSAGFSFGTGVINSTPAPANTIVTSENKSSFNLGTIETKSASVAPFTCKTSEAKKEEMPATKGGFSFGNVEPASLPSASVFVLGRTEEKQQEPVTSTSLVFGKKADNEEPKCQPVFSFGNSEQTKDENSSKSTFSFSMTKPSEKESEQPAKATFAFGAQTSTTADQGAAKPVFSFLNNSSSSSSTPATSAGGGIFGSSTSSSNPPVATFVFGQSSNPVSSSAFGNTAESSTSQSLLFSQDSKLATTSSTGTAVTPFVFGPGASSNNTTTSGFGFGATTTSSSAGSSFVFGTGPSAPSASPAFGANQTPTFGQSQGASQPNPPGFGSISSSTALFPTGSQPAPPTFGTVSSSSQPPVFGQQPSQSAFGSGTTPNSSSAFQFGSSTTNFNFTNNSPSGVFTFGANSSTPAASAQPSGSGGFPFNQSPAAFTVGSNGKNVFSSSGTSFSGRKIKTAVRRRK

LacI-CFP-Nup133 = target: T2, LacI-CFP-Nup133 (human, UniProt Q8WUM0 1-1156); test: LacI/LacO array recruitment in cells
T2 sequence: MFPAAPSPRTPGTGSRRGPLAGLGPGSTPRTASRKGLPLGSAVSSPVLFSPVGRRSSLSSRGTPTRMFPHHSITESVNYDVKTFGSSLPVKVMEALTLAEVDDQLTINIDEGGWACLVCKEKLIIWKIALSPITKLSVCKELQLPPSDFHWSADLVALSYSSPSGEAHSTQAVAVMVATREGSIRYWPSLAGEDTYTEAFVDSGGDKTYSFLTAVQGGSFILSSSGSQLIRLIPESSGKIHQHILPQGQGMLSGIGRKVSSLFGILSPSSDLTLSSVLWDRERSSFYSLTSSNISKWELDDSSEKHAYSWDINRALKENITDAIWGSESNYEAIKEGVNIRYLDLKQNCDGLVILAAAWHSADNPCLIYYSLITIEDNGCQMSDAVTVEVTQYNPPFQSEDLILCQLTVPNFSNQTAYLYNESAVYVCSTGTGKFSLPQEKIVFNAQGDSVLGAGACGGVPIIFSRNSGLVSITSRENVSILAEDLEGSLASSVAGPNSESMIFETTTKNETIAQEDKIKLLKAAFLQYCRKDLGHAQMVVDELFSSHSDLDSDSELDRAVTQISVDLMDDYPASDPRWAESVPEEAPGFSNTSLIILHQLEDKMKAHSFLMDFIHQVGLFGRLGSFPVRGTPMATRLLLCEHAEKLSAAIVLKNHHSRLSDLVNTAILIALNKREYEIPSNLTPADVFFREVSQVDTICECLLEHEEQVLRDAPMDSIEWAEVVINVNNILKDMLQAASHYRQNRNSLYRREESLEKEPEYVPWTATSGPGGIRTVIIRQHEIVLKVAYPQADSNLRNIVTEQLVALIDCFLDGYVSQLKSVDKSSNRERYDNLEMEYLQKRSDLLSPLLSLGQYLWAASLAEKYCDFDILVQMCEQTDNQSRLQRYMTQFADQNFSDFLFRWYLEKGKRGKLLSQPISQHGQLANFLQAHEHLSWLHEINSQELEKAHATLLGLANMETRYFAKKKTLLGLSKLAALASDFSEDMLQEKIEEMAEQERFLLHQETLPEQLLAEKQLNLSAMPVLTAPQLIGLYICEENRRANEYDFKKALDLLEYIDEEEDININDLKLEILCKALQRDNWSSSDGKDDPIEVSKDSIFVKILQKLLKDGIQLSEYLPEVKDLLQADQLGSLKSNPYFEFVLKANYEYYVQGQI

B1: Nup53 (endogenous) (natural protein)
chain: MAAFAVEPQGPALGSEPMMLGSPTSPKPGVNAQFLPGFLMGDLPAPVTPQPRSISGPSVGVMEMRSPLLAGGSPPQPVVPAHKDKSGAPPVRSIYDDISSPGLGSTPLTSRRQPNISVMQSPLVGVTSTPGTGQSMFSPASIGQPRKTTLSPAQLDPFYTQGDSLTSEDHLDDSWVTVFGFPQASASYILLQFAQYGNILKHVMSNTGNWMHIRYQSKLQARKALSKDGRIFGESIMIGVKPCIDKSVMESSDRCALSSPSLAFTPPIKTLGTPTQPGSTPRISTMRPLATAYKASTSDYQVISDRQTPKKDESLVSKAMEYMFGW
With B1 the “percent of transfected cells showing colocalization” value (LacI-CFP-Nup153) was 14% and the “percent of transfected cells showing colocalization” value (LacI-CFP-Nup133) was 20%.
